Tested on: MS2 coat protein
Experiment: apparent KD of MS2 coat protein; higher = weaker reporter binding
Settings: Eterna round: R107
Summary of the method: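 Illumina sequencing clusters were used for on-chip transcription of designed RNA switches. Titration with SNAP-549-labelled MS2 coat protein followed, in twofold steps from 0.7 or 1.5 nM to 3 µM in 100 mM Tris-HCl pH 7.5, 80 mM KCl, 4 mM MgCl2, without or with constant ligand. Apparent KD is each design's median of fits to normalised cluster binding curves.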

[1] = input ligand: theophylline 20 uM
[2] = input ligand: theophylline 2 mM
[3] = input ligand: tryptophan 2.4 mM

Row | Sequence | apparent KD of MS2 coat protein (input ligand: arginine 13.2 mM) [nM] | apparent KD of MS2 coat protein (input ligand: none) [nM] | apparent KD of MS2 coat protein [1] [nM] | apparent KD of MS2 coat protein [2] [nM] | apparent KD of MS2 coat protein [3] [nM]
1 | UAACAUGAGGAUCACCCAUGUUUAGAUGAACGAGGACCGGUACGGCCGCCACUCGAUAAGUGGAAGAAACGAGGGAUUGUAUGAU [Same State Trp A GF2] | 14.1 | 12.7 | 15.1 | 18.8 | 18.3
2 | UAUCGGAACUGAAGGAGCGAGAUGACAAACAUGAGGAUCACCCAUGUUAUGGGUUGUUAAUCUCAGGUAGGUCGCAGUGGUAGCA [#27 Same State - Arginine B] | 52.7 | 151 | 138 | 194 | 151
3 | GGGUGGUAGGCGGCCGCCACUGAUUUUCAUUCAUAGAUGACAUGAGGAUCACCCAUGUUUAUGUGCAGGACCGGGCCUGCUGUGG [aaaU] | 43.4 | 144 | 102 | 115 | 116
4 | AGCCUCAUACAUGAGGAUCACCCAUGUGAUACCAGUCAGGAAACUGACCCUUGGCAGCGCAUGAGGAUCACCCAUGCGCGAGGCA [Omei Theo A Exc A v1] | 40.1 |  | 123 |  | 36.8
5 | AAUAGUCCUCGACAUGAGGAUCACCCAUGUCGAGGACCGGUACGGCCGCCACUCGACAUGAGGAUCACCCAUGUUGAGUGAUAAA [prototype 1] | 7.58 |  | 8.26 | 7.82 | 
6 | GGCCCUGCGAGCGCUCGCAGGGCCGCGGAUACCAGCGAGGUCCAUCGCCCUUGGCAGCCGAACAUGAGGAUCACCCAUGUCGGUU [#1 Same State - Theophylline A Attempt #12 (HarryS)] | 5.98 | 11.2 | 12.3 | 14.4 | 9.96
7 | UGGUUUGUGAUGGAUACCAGCAGAGAAAACGUUUAUCCUAACAUGAGGAUCACCCAUGUAUGCCCUUGGCAGCUGUUGUGGGCUG [8.T] | 31.9 |  | 49.5 |  | 30.4
8 | GUGAAGUUAGUGAGCGUUAGUCAAGCCAAACGAGGACCGGUACGGCCGCCACUCGCGCAUCGACAUGAGGAUCACCCAUGUGCCG [theeternabot_exclusion_MS2_Trp_A_12] | 18.4 |  | 15.7 | 17.7 | 
9 | UACAUGAGGAUCACCCAUGUGGCGGAUGAUACCAGUAUGGUGACAUACCCUUGGCAGCAUGCUAUGAGGAUCACCCAUGUGUGCA [EThA NP+V+V2 #11 DOUBLE] | 56.3 |  | 84.9 |  | 70.7
10 | UGGUCCGGCGGAAGGAGCGACAUGAGGAUCACCCAUGUCUCCCGUUAUGGGAGUUCUUUAGGUCAGGUAGGUCGCCGGCGGGUCA [#1 Exclusion - Arginine B Attempt #11 (Inspired by Omei)] | 196 | 51.6 | 80.6 | 221 | 62.9
11 | UUACAUGAGGAUCACCCAUGUCAUAACGAUACCAGAUAGUUAAUGAUCCCUUGGCAGCGUAAUACCUAGACAUUUAAGUCAUAGG [#25 SameState-TheophyllineA] | 35.3 |  | 63.2 |  | 50.9
12 | UGUAUGUGAUCUGAUACCAGUCCAACUGGUAAAACAAGAGGAUCACCCUUGUAAAAUUGGGACCCUUGGCAGCAGAUCGCAUACU | 251 | 472 | 409 | 29.8 | 733
13 | GGGUGCGGCACGGCCGCCACUGCGGUGGUGUGACAUGAGGAUCACCCAUGUUGUCAUGCGGCCCUUAGGACCGGGUGGCGUGCCU [#1 Exclusion - Tryptophan B Attempt #15 (HarryS)] | 5.27 | 24.1 | 31.2 | 89.5 | 38
14 | AACACAUGAGGAUCACCCAUGUUCUCGUGUCGAGGACCGGUACGGCCGCCACUCGGUUCUCGCGAGGAUGGUCAAAGACUAUCCA [Omei Trp A SS B v7] | 40.3 |  | 57.4 | 50.4 | 
15 | GCGUUGGUCGGAAGGAGCGACAUGAGGAUCACCCAUGUCUCCCGUUAUGGGAGUUCCUUAGGUCAGGUAGGUCGCCGACUGACGC [#1 Exclusion - Arginine B Attempt #20 (Inspired by Omei)] | 96.1 | 209 | 193 | 150 | 143
16 | UGACAUUGCUCAGAUACCAGACAUGAGCAUCAGCCAUGUGCCAACAAGUACAUAAUAAAAGUCCCUUGGCAGCUGAGCAAUGUCU [TheoBX 20 #MS2Left #AlternativeMS2 #Theo2] | 13.2 | 11.3 | 16.2 | 68.4 | 11.3
17 | GGGUGCGGGUGAAGGAGCGUGAAGACAUGAGGAUCACCCAUGUAGAGGCCCGAACAGGGUUCGCAGGUAGGUCGCACCCGUGCCC [#1 Same State - Arginine B Attempt #3 (HarryS)] | 12 | 17.3 | 22.8 | 19.5 | 16.4
18 | GGCACAUAGUCGGCCGCCACUAGGCUGUAGUGGGAGGACAUGAGGAUCACCCAUGUAUUUGGUACUAGGACCGGGACUAUGUGCC [Lion] | 62.3 | 191 | 259 | 274 | 258
19 | GGCGGACUUAUAGAUACCAGCACAUGAGGAUCACCCAUGUAUGGUCGCACCUCAGUCCUGUGCCCUUGGCAGCUAUAAUAGAUUU [Esxeanbi] | 20.8 |  | 49.8 |  | 16.4
20 | GGCGCGGUGAUGGAAGCCGAACGCUAGGUACGAGGACCGGUACGGCCGCCACUCGUAGUCCUGGGACAUGAGGAUCACCCAUGUA [Same State Trp A GF20] | 39.3 | 119 | 109 | 96 | 51.2
21 | CCGUCACAUGAGGAUCACCCAUGUGGUGAUACCAGCAGUCGACCCUGCCCUUGGCAGCACAUUAUCAUAAAAGCAAUCAGCAACG [theeternabot_sameState_MS2_Theo_A_41] | 57 |  | 269 |  | 135
22 | GCACCAGGUACGGAUACCAGCUGCCACAGUUACAUGAGGAUCACCCAUGUGAUAAAGUGUAGCCCUUGGCAGCUGUACCUGGUGC [SSThB NP+V+V2 #6 +-Same Structure] | 93.2 |  | 69.1 |  | 125
23 | UGUAUGUGAUCUGAUACCAGAGUUGAUAACCUGAGGAUCACCCUGGUAAAGGCGAAAGCCCUCCCUUGGCAGCAGAUCGCAUACU | 121 | 216 | 207 | 34.6 | 239
24 | UGGUACUAGGCGGCCGCCACUGGGUGAUACAUGAGGAUCACCCAUGUUUAAUGCCGAGAGGCAACCAGGACCGGGCCUAGUACAU | 139 | 327 | 366 | 473 | 19.5
25 | UAUAUAUAAAUUGAUACCAGCGAGAAAACAUGAGGAUCACCCAUGUUCGCCCAUGUUAAGCGCCCUUGGCAGCAAUAUUAUUAUU [AstrosExyTheB#3] | 18.8 |  | 33.4 |  | 33.8
26 | UGUAUGUGAUUUGAUACCAGACCAGCUGGUGGUACCUGAGGAUCACCCGGGUAGGUUUGGGUCCCUUGGCAGCAAAUCGCAUACU [SS Theo B #24 Ms8] | 48.6 | 48.6 | 52.1 | 31.5 | 48.6
27 | AAACUGGGUGUAAAAUAAAUAAUCACUGAUACCAGACUAUGAGAUGUCCCUUGGCAGCAGAAACAUGAGGAUCACCCAUGUAAUA [JR_Nu_ExcTheophyA_Sub026] | 19.6 |  | 24.5 |  | 25.2
28 | GGGUCGGGCGCGGCCGCCACUGCGGUGGUGUGACAUGAGGAUCACCCAUGUUGUCAUGCGGCCCUUAGGACCGGGCGCCCGGCCC [#1 Exclusion - Tryptophan B Attempt #11 (HarryS)] | 19.3 | 42.5 | 67.4 | 70.1 | 38.4
29 | AGAGUUAGACAAAAGUCUAGCUCACCAGAAGGAGCGUCCGAAAGGACAGGUAGGUCGCUGGUACACGAGGAUCACCCGUGUUCCU [ArgAS 16 #OpenEnded #AlternativeMS2] | 27.6 | 38.6 | 40.4 | 50.3 | 36.8

Source: the supplement of paper PMC9170038
